Test results published in PMC11698036, “Borg5 restricts contractility and motility in epithelial MDCK cells” (Journal of Cell Science, 2024).

T1: His–Borg5 (recombinant mouse Borg5, Cdc42EP1) (mouse, UniProt Q91W92 1-409)
T1 construct: Borg5 (Cdc42EP1), mouse cDNA (Borg5–Myc cDNA of Vong et al., 2010), PCR-cloned into pet28a+; All recombinant Borg5 constructs were based on mouse Borg5–Myc cDNA; Runs at 50 kDa on the His blot; also called His-tagged Borg5; source: E. coli BL21(DE3), purified (boiled, 8 M urea, Ni-NTA agarose; also purified under native conditions)
T1 sequence (looked up): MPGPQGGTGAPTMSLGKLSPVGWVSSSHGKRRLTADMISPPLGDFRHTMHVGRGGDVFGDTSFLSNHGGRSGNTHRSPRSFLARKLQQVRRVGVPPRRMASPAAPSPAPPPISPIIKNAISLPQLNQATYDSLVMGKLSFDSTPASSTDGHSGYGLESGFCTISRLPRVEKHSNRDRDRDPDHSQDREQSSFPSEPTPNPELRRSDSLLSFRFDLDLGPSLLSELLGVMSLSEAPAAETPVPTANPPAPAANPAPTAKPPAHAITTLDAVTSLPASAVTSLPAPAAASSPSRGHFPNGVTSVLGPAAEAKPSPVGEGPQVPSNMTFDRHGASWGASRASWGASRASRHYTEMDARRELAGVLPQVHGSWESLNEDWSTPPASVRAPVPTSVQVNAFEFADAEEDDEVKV


Key:
[1] = biological target: T1, His–Borg5 (recombinant mouse Borg5, …); assay: pull-down; three-way assay: His–MyoIIA-Rod pre-incubated with His–Borg5, then bound to His–SEPT2/6/7/9–Strep immobilised on Strep-Tactin Sepharose; septin buffer (300 mM KCl), 4°C; biotin elution; His blot; four experiments; conditions: both partners purified
[2] = biological target: T1, His–Borg5 (recombinant mouse Borg5, …); assay: pull-down; three-way assay: His–Borg5 pre-incubated with septin 9-6-7-2 complexes, then bound to GST–MyoIIA-Rod immobilised on glutathione resin; septin buffer (300 mM KCl), 4°C; Coomassie gel and His blot; two experiments; conditions: both partners purified

Binder	Borg5–SEPT binding with His-MyoIIRod, relative to that without MyoIIRod [1]	His–Borg5 binding to Myo–GST with SEPT complexes, relative to that without septins (experiment 1) [2]	His–Borg5 binding to Myo–GST with SEPT complexes, relative to that without septins (experiment 2) [2]
His-tagged rod domain of myosin IIA (His–MyoIIA-Rod) (domain or fragment, UniProt P35579 1339-1960, looked up, Myosin IIA heavy chain (MYH9), rod domain, amino acids 1339–1960, in pet28a; Construct provided by Anne Bresnick; also called His-MyoIIRod; His-MyoRod; source: E. coli BL21(DE3), purified (Mg-ATP step, nickel agarose)) NSFREQLEEEEEAKHNLEKQIATLHAQVADMKKKMEDSVGCLETAEEVKRKLQKDLEGLSQRHEEKVAAYDKLEKTKTRLQQELDDLLVDLDHQRQSACNLEKKQKKFDQLLAEEKTISAKYAEERDRAEAEAREKETKALSLARALEEAMEQKAELERLNKQFRTEMEDLMSSKDDVGKSVHELEKSKRALEQQVEEMKTQLEELEDELQATEDAKLRLEVNLQAMKAQFERDLQGRDEQSEEKKKQLVRQVREMEAELEDERKQRSMAVAARKKLEMDLKDLEAHIDSANKNRDEAIKQLRKLQAQMKDCMRELDDTRASREEILAQAKENEKKLKSMEAEMIQLQEELAAAERAKRQAQQERDELADEIANSSGKGALALEEKRRLEARIAQLEEELEEEQGNTELINDRLKKANLQIDQINTDLNLERSHAQKNENARQQLERQNKELKVKLQEMEGTVKSKYKASITALEAKIAQLEEQLDNETKERQAACKQVRRTEKKLKDVLLQVDDERRNAEQYKDQADKASTRLKQLKRQLEEAEEEAQRANASRRKLQRELEDATETADAMNREVSSLKNKLRRGDLPFVVPRRMARKGAGDGSDEEVDGKADGAEAKPAE	0.57 fraction of that without MyoIIRod		
septin 9–septin 6–septin 7–septin 2 complex (His–SEPT2/6/7/9–Strep) (complex, Prepared according to Castro-Linares et al. (2022); Tag ends are read from the plasmid names; As I recall, these Addgene plasmids hold mouse SEPT2 and human SEPT6, SEPT7 and SEPT9_i1; also called septin 9-6-7-2; SEPT complexes; source: E. coli BL21(DE3), co-expressed, purified (nickel agarose, then Strep-Tactin Sepharose); not shown: 6xHis, N-terminal, kept; Strep tag, C-terminal, kept; copies: + …) chain 1: MSKQQPTQFINPETPGYVGFANLPNQVHRKSVKKGFEFTLMVVGESGLGKSTLINSLFLTDLYPERIIPGAAEKIERTVQIEASTVEIEERGVKLRLTVVDTPGYGDAINCRDCFKTIISYIDEQFERYLHDESGLNRRHIIDNRVHCCFYFISPFGHGLKPLDVAFMKAIHNKVNIVPVIAKADTLTLKERERLKKRILDEIEEHSIKIYHLPDAESDEDEDFKEQTRLLKASIPFSVVGSNQLIEAKGKKVRGRLYPWGVVEVENPEHNDFLKLRTMLITHMQDLQEVTQDLHYENFRSERLKRGGRKVENEDMNKDQILLEKEAELRRMQEMIARMQAQMQMQMQGGDSDSGALGQHV chain 2: MAATDIARQVGEGCRTVPLAGHVGFDSLPDQLVNKSVSQGFCFNILCVGETGLGKSTLMDTLFNTKFEGEPATHTQPGVQLQSNTYDLQESNVRLKLTIVSTVGFGDQINKEDSYKPIVEFIDAQFEAYLQEELKIRRVLHTYHDSRIHVCLYFIAPTGHSLKSLDLVTMKKLDSKVNIIPIIAKADAISKSELTKFKIKITSELVSNGVQIYQFPTDDESVAEINGTMNAHLPFAVIGSTEELKIGNKMMRARQYPWGTVQVENEAHCDFVKLREMLIRVNMEDLREQTHTRHYELYRRCKLEEMGFKDTDPDSKPFSLQETYEAKRNEFLGELQKKEEEMRQMFVQRVKEKEAELKEAEKELHEKFDRLKKLHQDEKKKLEDKKKSLDDEVNAFKQRKTAAELLQSQGSQAGGSQTLKRDKEKKNNPWLCTE chain 3: MSVSARSAAAEERSVNSSTMVAQQKNLEGYVGFANLPNQVYRKSVKRGFEFTLMVVGESGLGKSTLINSLFLTDLYSPEYPGPSHRIKKTVQVEQSKVLIKEGGVQLLLTIVDTPGFGDAVDNSNCWQPVIDYIDSKFEDYLNAESRVNRRQMPDNRVQCCLYFIAPSGHGLKPLDIEFMKRLHEKVNIIPLIAKADTLTPEECQQFKKQIMKEIQEHKIKIYEFPETDDEEENKLVKKIKDRLPLAVVGSNTIIEVNGKRVRGRQYPWGVAEVENGEHCDFTILRNMLIRTHMQDLKDVTNNVHYENYRSRKLAAVTYNGVDNNKNKGQLTKSPLAQMEEERREHVAKMKKMEMEMEQVFEMKVKEKVQKLKDSEAELQRRHEQMKKNLEAQHKELEEKRRQFEDEKANWEAQQRILEQQNSSRTLEKNKKKGKIF chain 4: MKKSYSGGTRTSSGRLRRLGDSSGPALKRSFEVEEVETPNSTPPRRVQTPLLRATVASSTQKFQDLGVKNSEPSARHVDSLSQRSPKASLRRVELSGPKAAEPVSRRTELSIDISSKQVENAGAIGPSRFGLKRAEVLGHKTPEPAPRRTEITIVKPQESAHRRMEPPASKVPEVPTAPATDAAPKRVEIQMPKPAEAPTAPSPAQTLENSEPAPVSQLQSRLEPKPQPPVAEATPRSQEATEAAPSCVGDMADTPRDAGLKQAPASRNEKAPVDFGYVGIDSILEQMRRKAMKQGFEFNIMVVGQSGLGKSTLINTLFKSKISRKSVQPTSEERIPKTIEIKSITHDIEEKGVRMKLTVIDTPGFGDHINNENCWQPIMKFINDQYEKYLQEEVNINRKKRIPDTRVHCCLYFIPATGHSLRPLDIEFMKRLSKVVNIVPVIAKADTLTLEERVHFKQRITADLLSNGIDVYPQKEFDEDSEDRLVNEKFREMIPFAVVGSDHEYQVNGKRILGRKTKWGTIEVENTTHCEFAYLRDLLIRTHMQNIKDITSSIHFEAYRVKRLNEGSSAMANGMEEKEPEAPEM		0.6 fraction of that observed without septins present	0.3 fraction of that observed without septins present
